Three molecules from article doi:10.1101/2020.04.01.839274 (bioRxiv, 2020) can be followed below.

B1: endogenous EXOSC9 (natural protein, mouse (endogenous in Neuro-2a), UniProt Q9JHI7 1-438, looked up)
chain: MKETPLSNCERRFLLRAIEEKKRLDGRQTYDYRNIRISFGTDYGCCIVELGKTRVLGQVSCELVSPKLNRATEGILFFNLELSQMAAPAFEPGRQSDLLVKLNRLLERCLRNSKCIDTESLCVVAGEKVWQIRVDLHLLNHDGNIIDAASIAAIVALCHFRRPDVSVQGEEVTLYTPEERDPVPLSIHHMPICVSFAFFQQGTYLLVDPNEREERVMDGLLVIAMNKHREICTIQSSGGIMLLKDQVFRCSKIAGVKVAEITELIQKALENDQRVRKEGGKFGFAESIANQRITAFKMETAPIDTSNIEERAEEIIAEAEPPPEVVSQPVLWTPGTAQIGDGIENSWGDLEDSEKEEEEEEGGIDEAVILDDTKMDTGEVSDIGSQGAPIVLSDSEEEEMIILEPEKNPKKIRAQTSANQKAPSKGQGKRKKKKRTAN
B2: endogenous EXOSC10 (natural protein, mouse (endogenous in Neuro-2a), UniProt P56960 1-887, looked up)
chain: MAPPSPREHQSAPATSATKPDAEMVLPGFPDADSFVKFALGSVVAVTKASGGLPQFGDEYDFYRSFPAFQAFCETQGDRLLQCMSRVMQYHGCRSNIKDRSKVTELEDKFDLLVDTNDVILERVGMLLDEASGVNKHQQPVLPAGLQVPKTIVSSWNRKAGEYGKKAKSETFRLLHAKNIVRPQLRFREKIDNSNTPFLPKIFVKPNARKPLPLALSKERRERPQDRPEDLDVPPALADFIHQQRTQQVEQDMFAHPYQYELDHFTPPQSVLQRPKPQLYRAVGETPCHLVSSLDELVELNEKLLGCQEFAVDLEHHSYRSFLGLTCLMQISTRTEDFIVDTLELRSDMYILNESLTDPAIVKVFHGADSDIEWLQKDFGLYVVNMFDTHQAARLLNLARHSLDHLLRLYCGVESNKQYQLADWRIRPLPEEMLSYARDDTHYLLYIYDRMRLELWERGNHQPVQLQVVWQRSRDICLKKFVKPIFTDESYLELYRKQKKHLNSQQLTAFQLLFAWRDKTARREDESYGYVLPNHMMLKIAEELPKEPQGIIACCNPVPPLVRQQINEMHLLIQQAREMPLLKSENAAGVRKSGPLPSAERLENDLFGPHDCSHAPPDNYQNTSTDGTLPLQKQPSLFTEGKEETSVDAGCLLATAVITLFSEPNTEEGGKTPLTVAQKKAQNIMQSFENPFRMFLPSLEHKAHISQAAKFDPSSKIYEISNRWKLASQVQVQKEPKEATKKKVAEQTAAREEAKEEAAAGVLEQAIPVRQQAALENATKKRERATSDLRTIEQKQEKKRLKSSKKAKDPDPPGKDFSPYDYSQSDFRAFAGDSKSKPSSQFDPNKLAPSGKKGVGAKKCKQSVGNKSMSFAVGKSDRGFRHNWPKR
B3: endogenous EXOSC3 (natural protein, mouse (endogenous in Neuro-2a), UniProt Q7TQK4 1-274, looked up)
chain: MAEVLSAGPESVAGCRARAVHKVLNQVVLPGEELVLPDHEDVDGLGGAGEQPLRLNAGARPRLRVVCGPGLRRCGDRLLVTKCGRLRHKEPSGGGGGVYWVDSQQKRYVPVKGDHVIGIVIAKSGDIFKVDVGGSEPASLSYLAFEGATKRNRPNVQVGDLIYGQCVVANKDMEPEMVCIDSCGRANGMGVIGQDGLLFKVTLGLIRKLLAPDCEIVQELGKLYPLEIVFGMNGRIWVKAKTIQQTLILANVLEACEHMTTEQRKQIFARLAES

Myc-tagged mouse EXOSC5 p.Leu206His, sequence (Q9CRA8 whole entry L206H): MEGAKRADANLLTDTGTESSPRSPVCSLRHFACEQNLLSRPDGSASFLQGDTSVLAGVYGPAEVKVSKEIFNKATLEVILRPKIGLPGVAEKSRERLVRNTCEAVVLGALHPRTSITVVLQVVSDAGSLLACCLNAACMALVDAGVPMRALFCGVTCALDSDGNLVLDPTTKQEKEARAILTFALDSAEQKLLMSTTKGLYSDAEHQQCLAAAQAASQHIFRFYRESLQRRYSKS

For the first experiment, the target named is Myc-tagged mouse EXOSC5 p.Thr114Ile (mouse, UniProt Q9CRA8 1-235, T114I). Briefly: co-IP.
Myc-tagged mouse EXOSC5 p.Thr114Ile, sequence (Q9CRA8 whole entry T114I): as the sequence (Q9CRA8 whole entry L206H) above, with T114I, H206L counted along it
As for B1, the “% EXOSC subunit bound relative to wild-type EXOSC5” value is 24%.
On the same count and under the same terms, for B2 the value was 40%; for B3, 28%.

Another experiment addresses Myc-tagged mouse EXOSC5 p.Leu206His (mouse, UniProt Q9CRA8 1-235, L206H). The experiment in a line: co-IP.
Regarding B1, the “% EXOSC subunit bound relative to wild-type EXOSC5” value amounted to 16%.
B2: the “% EXOSC subunit bound relative to wild-type EXOSC5” value is 21%.
Same read-out and setting: for B3 the value was 9%.
